Test results as given in patent US20260256927A1 (Merck Sharp & Dohme, published 2026).

T1: IL-2Rα-Fc (Acro Biosystems, catalog #ILA-H5251) (UniProt P01589 22-217, limits assumed)
T1 construct: Bought reagent; Captured on an anti-Fc chip as SPR ligand; also called CD25; not shown: Fc part of the bought fusion
T1 sequence (looked up): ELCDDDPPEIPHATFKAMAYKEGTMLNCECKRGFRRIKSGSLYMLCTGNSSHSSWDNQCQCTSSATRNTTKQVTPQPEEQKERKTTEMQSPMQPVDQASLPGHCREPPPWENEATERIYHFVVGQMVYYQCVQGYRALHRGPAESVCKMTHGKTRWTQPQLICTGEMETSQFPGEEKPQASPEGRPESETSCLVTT

T2: IL-2Rβ-Fc (Acro Biosystems, catalog #ILB-H5253) (UniProt P14784 27-239, limits assumed)
T2 construct: Bought reagent; Captured on an anti-Fc chip as SPR ligand; also called CD122; not shown: Fc part of the bought fusion
T2 sequence (looked up): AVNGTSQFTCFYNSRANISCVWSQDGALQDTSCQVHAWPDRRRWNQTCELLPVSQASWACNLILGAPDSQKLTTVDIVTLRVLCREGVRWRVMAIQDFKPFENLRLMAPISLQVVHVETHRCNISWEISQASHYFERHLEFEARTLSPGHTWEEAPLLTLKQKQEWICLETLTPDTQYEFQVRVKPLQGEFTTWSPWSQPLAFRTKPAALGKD


Key:
[1] = molecular target: T1, IL-2Rα-Fc (Acro Biosystems, catalog …); assay: SPR (Biacore T200), kinetic; receptor-Fc captured on anti-Fc CM5 chip, IL-2 variant as analyte
Procedure: (§1) Anti-Fc polyclonal antibodies were immobilized onto a CM5 chip (GE Life Sciences) using amine coupling chemistry (from Amine Coupling Kit, GE Life Sciences). The immobilization steps were carried out at a flow rate of 25 μL/minute in 1×HBS-EP+ buffer (GE Life Sciences; 10× Stock diluted before use). The sensor surfaces were activated for 7 minutes with a mixture of NHS (0.05 M) and EDC (0.2 M). The anti-Fc antibodies were injected over all four flow cells at a concentration of 25 μg/mL in 10 mM sodium acetate, pH 4.5, for seven minutes. Ethanolamine (1 M, pH 8.5) was injected for seven minutes to block any remaining activated groups.
(§2) Kinetic binding experiments were performed at 25° C. using 1×HBS-EP+ with 0.05% BSA buffer. IL-2Rα-Fc or IL-2Rβ-Fc (Acro Biosystems, catalog #ILA-H5251, ILB-H5253) was injected over the anti-Fc surface at concentrations of 3-10 μg/mL for 12 seconds at a flow rate of 10 μL/minute on flow cells 2, 3 and 4, followed by a buffer wash for 30 seconds at the same flow rate. Kinetic characterization of conjugated or unconjugated aldesleukin or variants was carried out in a range of concentrations from 1 nM-10 μM and one injection of no antigen. After capturing ligand (IL-2Rα-Fc or IL-2Rβ-Fc) on the anti-Fc surface, the analyte (IL-2 variant) was bound for 60 seconds, followed by a 180 second dissociation phase at a flow rate of 50 μL/min. Between each ligand capture and analyte binding cycle, regeneration was carried out using two injections of 10 mM Glycine pH 1.5 for 30 seconds at 30 μL/minute, followed by a 30 second buffer wash step.

[2] = molecular target: T2, IL-2Rβ-Fc (Acro Biosystems, catalog …); assay: as above
Procedure: as §1, §2

[3] = molecular target: T1, IL-2Rα-Fc (Acro Biosystems, catalog …); assay: SPR, receptor-Fc captured on anti-Fc chip
[4] = molecular target: T1, IL-2Rα-Fc (Acro Biosystems, catalog …); assay: SPR, kinetic binding to IL-2 receptor
[5] = molecular target: T2, IL-2Rβ-Fc (Acro Biosystems, catalog …); assay: SPR, kinetic binding to IL-2 receptor

Row | Binder | Kd [1] | Kd [2] | further results
1 | Ald-6HIS_Q73pAMF (SP9965), unconjugated (ligand, X74 = pAMF (Q73 in SEQ ID NO: 2/3 numbering), also called Aldesleukin-6His Q73TAG p-azidomethyl-L-phenylalanine) MPTSSSTKKTQLQLEHLLLDLQMILNGINNYKNPKLTRMLTFKFYMPKKATELKHLQCLEEELKPLEEVLNLAFSKNFHLRPRDLISNINVIVLELKGSETTFMCEYADETATIVEFLNRWITFSQSIISTLTGGSHHHHHH | 7 nM | 80 nM | 
2 | SP10725 (Aldesleukin-6His_S4/Y30/K34/R80 pAMF conjugated to SC579) (ligand, X5, X31, X35, X81 = pAMF (S4, Y30, K34, R80), each conjugated to SC579 (releasable 20 kDa mPEG Fmoc-DBCO linker), also called SP10725 PEG conjugate) MPTSFSTKKTQLQLEHLLLDLQMILNGINNFKNPFLTRMLTFKFYMPKKATELKHLQCLEEELKPLEEVLNLAQSKNFHLFPRDLISNINVIVLELKGSETTFMCEYADETATIVEFLNRWITFSQSIISTLTGGSHHHHHH |  |  | binding result [3]: no binding
3 | Ald-6HIS_V114pAMF (SP9970) conjugated to DBCO 2 x 10 kDa PEG (PEG2) (ligand, X115 = pAMF (V114) conjugated to branched 20 kDa PEG (DBCO 2 x 10 kDa PEG, PEG2), also called SP9970 PEG2 conjugated) MPTSSSTKKTQLQLEHLLLDLQMILNGINNYKNPKLTRMLTFKFYMPKKATELKHLQCLEEELKPLEEVLNLAQSKNFHLRPRDLISNINVIVLELKGSETTFMCEYADETATIFEFLNRWITFSQSIISTLTGGSHHHHHH | 500 nM |  | 
4 | Aldesleukin-6His_S4/Y30/K34/Q73 pAMF (SP10686) conjugated to SC547 stump (ligand, X5, X31, X35, X74 = pAMF (S4, Y30, K34, Q73), each conjugated to SC547 (conjugation stump), also called SP10726 stump conjugate) MPTSFSTKKTQLQLEHLLLDLQMILNGINNFKNPFLTRMLTFKFYMPKKATELKHLQCLEEELKPLEEVLNLAFSKNFHLRPRDLISNINVIVLELKGSETTFMCEYADETATIVEFLNRWITFSQSIISTLTGGSHHHHHH |  |  | Kd [4]: 30 nM; Kd [5]: 600 nM
5 | Ald-6HIS_V114pAMF (SP9970), unconjugated (ligand, X115 = pAMF (V114 in SEQ ID NO: 2/3 numbering), also called Aldesleukin-6His V114TAG p-azidomethyl-L-phenylalanine) MPTSSSTKKTQLQLEHLLLDLQMILNGINNYKNPKLTRMLTFKFYMPKKATELKHLQCLEEELKPLEEVLNLAQSKNFHLRPRDLISNINVIVLELKGSETTFMCEYADETATIFEFLNRWITFSQSIISTLTGGSHHHHHH | 50 nM | 300 nM | 
6 | Aldesleukin-6His_S4/Y30/K34/R80 pAMF F41K (SP10688) conjugated to SC547 stump (ligand, X5, X31, X35, X81 = pAMF (S4, Y30, K34, R80), each conjugated to SC547 (conjugation stump), also called SP10728 stump conjugate) MPTSFSTKKTQLQLEHLLLDLQMILNGINNFKNPFLTRMLTKKFYMPKKATELKHLQCLEEELKPLEEVLNLAQSKNFHLFPRDLISNINVIVLELKGSETTFMCEYADETATIVEFLNRWITFSQSIISTLTGGSHHHHHH |  |  | Kd [5]: 2000 nM
7 | Ald-6HIS_Y30pAMF (SP9957) conjugated to DBCO 2 x 10 kDa PEG (PEG2) (ligand, X31 = pAMF (Y30) conjugated to branched 20 kDa PEG (DBCO 2 x 10 kDa PEG, PEG2), also called SP9957 PEG2 conjugated) MPTSSSTKKTQLQLEHLLLDLQMILNGINNFKNPKLTRMLTFKFYMPKKATELKHLQCLEEELKPLEEVLNLAQSKNFHLRPRDLISNINVIVLELKGSETTFMCEYADETATIVEFLNRWITFSQSIISTLTGGSHHHHHH | 300 nM |  | 
8 | Ald-6HIS_R80pAMF (SP9968), unconjugated (ligand, X81 = pAMF (R80 in SEQ ID NO: 2/3 numbering), also called Aldesleukin-6His R80TAG p-azidomethyl-L-phenylalanine) MPTSSSTKKTQLQLEHLLLDLQMILNGINNYKNPKLTRMLTFKFYMPKKATELKHLQCLEEELKPLEEVLNLAQSKNFHLFPRDLISNINVIVLELKGSETTFMCEYADETATIVEFLNRWITFSQSIISTLTGGSHHHHHH | 20 nM | 400 nM | 
9 | Ald-6HIS_R80pAMF (SP9968) conjugated to DBCO 2 x 10 kDa PEG (PEG2) (ligand, X81 = pAMF (R80) conjugated to branched 20 kDa PEG (DBCO 2 x 10 kDa PEG, PEG2), also called SP9968 PEG2 conjugated) MPTSSSTKKTQLQLEHLLLDLQMILNGINNYKNPKLTRMLTFKFYMPKKATELKHLQCLEEELKPLEEVLNLAQSKNFHLFPRDLISNINVIVLELKGSETTFMCEYADETATIVEFLNRWITFSQSIISTLTGGSHHHHHH | 100 nM |  | 
10 | Ald-6HIS_S4pAMF (SP9954), unconjugated (ligand, X5 = p-azidomethyl-L-phenylalanine (pAMF; S4 in SEQ ID NO: 2/3 numbering), also called Aldesleukin-6His S4TAG p-azidomethyl-L-phenylalanine) MPTSFSTKKTQLQLEHLLLDLQMILNGINNYKNPKLTRMLTFKFYMPKKATELKHLQCLEEELKPLEEVLNLAQSKNFHLRPRDLISNINVIVLELKGSETTFMCEYADETATIVEFLNRWITFSQSIISTLTGGSHHHHHH | 8 nM | 300 nM | 
11 | Aldesleukin-6His_S4/Y30/K34/V114 pAMF (SP10687) conjugated to SC547 stump (ligand, X5, X31, X35, X115 = pAMF (S4, Y30, K34, V114), each conjugated to SC547 (conjugation stump), also called SP10727 stump conjugate) MPTSFSTKKTQLQLEHLLLDLQMILNGINNFKNPFLTRMLTFKFYMPKKATELKHLQCLEEELKPLEEVLNLAQSKNFHLRPRDLISNINVIVLELKGSETTFMCEYADETATIFEFLNRWITFSQSIISTLTGGSHHHHHH |  |  | Kd [4]: 100 nM; Kd [5]: 1000 nM
